Laboratory results from patent publication US20200172626A1.

Molecular target: human 4-1BB expressed on cells (human) (UniProt Q07011)
Assay: flow cytometry dot plot (CD8-BV510 against BBK-4-Dylight488) on human CD8+ T cells activated with anti-CD3 for 2 days; antibody at 25 ng/ml, anti-mIgG-Dylight488

Chain of human 4-1BB expressed on cells (human) (Q07011 24-255 limits assumed): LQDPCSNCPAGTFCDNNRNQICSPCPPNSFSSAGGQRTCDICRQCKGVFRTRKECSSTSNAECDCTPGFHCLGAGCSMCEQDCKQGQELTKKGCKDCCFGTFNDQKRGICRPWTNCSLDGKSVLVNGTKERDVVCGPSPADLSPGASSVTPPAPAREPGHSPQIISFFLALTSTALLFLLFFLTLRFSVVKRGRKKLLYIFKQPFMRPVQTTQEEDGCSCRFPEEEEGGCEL

BBK-4 murine anti-human 4-1BB antibody
% of 4-1BB-positive CD8 T cells: 1.72%
